Assay results as given in paper PMC9677513.

How the values were obtained:
[1] = biological target: Nano-CRAF^CAT (human) (UniProt P04049); test: FRET or BRET
[2] = biological target: E275K-BRAF^FL-RLuc8 (human) (UniProt P15056); test: FRET or BRET

increase of BRET signal over CRAF^REG [1] [%]	increase of BRETmax over WT [2] [%]	Substance
40		CRAF^REG construct containing the BRAF-CRD, Halo-tagged (domain or fragment)
	15	Venus-KRAS^G12V (from UniProt P01116 1-189) (natural protein)
